Columns and labels:
human CNTN4-10×His [1] = target: T1, human CNTN4-10×His (human, UniProt Q8IWV2 19-1000); experiment: ELISA on coated human CNTN4-10×His, co-incubated with 0 nM CNTN4 receptor (APP); 0 nM CNTN-4 receptor (co-incubation)
T1 construct: also called CNTN-4 protein
T1 sequence: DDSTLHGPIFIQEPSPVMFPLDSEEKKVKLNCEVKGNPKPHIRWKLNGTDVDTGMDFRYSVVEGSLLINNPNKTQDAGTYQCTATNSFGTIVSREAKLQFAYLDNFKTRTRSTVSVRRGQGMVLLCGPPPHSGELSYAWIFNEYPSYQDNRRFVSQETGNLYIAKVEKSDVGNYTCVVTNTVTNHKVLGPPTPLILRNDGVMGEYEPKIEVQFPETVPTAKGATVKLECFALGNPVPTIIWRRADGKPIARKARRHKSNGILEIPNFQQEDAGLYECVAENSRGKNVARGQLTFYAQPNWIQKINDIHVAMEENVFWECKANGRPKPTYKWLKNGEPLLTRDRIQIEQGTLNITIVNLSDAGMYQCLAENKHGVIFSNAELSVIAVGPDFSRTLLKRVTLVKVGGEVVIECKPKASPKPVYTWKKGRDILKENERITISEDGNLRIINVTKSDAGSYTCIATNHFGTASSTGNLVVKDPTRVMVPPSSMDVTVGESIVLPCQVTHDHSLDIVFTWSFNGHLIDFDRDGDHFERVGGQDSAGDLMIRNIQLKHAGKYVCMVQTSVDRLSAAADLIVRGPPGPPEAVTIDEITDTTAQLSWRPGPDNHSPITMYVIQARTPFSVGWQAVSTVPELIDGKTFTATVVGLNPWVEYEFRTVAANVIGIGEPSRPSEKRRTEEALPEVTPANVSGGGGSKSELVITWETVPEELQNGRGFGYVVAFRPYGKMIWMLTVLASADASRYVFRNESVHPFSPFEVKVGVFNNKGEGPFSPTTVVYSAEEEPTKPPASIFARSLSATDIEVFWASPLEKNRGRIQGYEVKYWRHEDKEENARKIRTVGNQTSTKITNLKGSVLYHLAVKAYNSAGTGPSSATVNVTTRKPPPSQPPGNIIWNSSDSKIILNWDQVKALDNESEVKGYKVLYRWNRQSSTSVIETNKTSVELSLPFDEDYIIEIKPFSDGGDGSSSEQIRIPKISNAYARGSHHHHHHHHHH
Procedure: (§1) An ELISA plate was coated with 20 nM of antigens human CNTN4-10×His. For antibody binding, a mixture of antibodies hAb-1 diluted to a final concentration of 0 to 1,000 nM and human CNTN4 receptors (Amyloid precursor protein, APP) diluted to 0 or 500 nM was bound to the antigens. HRP conjugated anti-human kappa antibodies were used as a secondary antibody for antibody detection. Color was developed using ABTS, which is a color developing reagent, and the absorbance at 405 nm was measured.

[2] = target: T2, human CNTN4 recombinant protein (human, UniProt Q8IWV2 19-1000); experiment: SPR (CM5 chip), hAb-1 captured by anti-human IgG Fc, human CNTN4 400 nM to 0.78 nM as analyte
T2 construct: No tag is stated, so it is kept apart from human CNTN4-10×His, though it may be the same preparation; also called Human CNTN-4 protein
T2 sequence (looked up): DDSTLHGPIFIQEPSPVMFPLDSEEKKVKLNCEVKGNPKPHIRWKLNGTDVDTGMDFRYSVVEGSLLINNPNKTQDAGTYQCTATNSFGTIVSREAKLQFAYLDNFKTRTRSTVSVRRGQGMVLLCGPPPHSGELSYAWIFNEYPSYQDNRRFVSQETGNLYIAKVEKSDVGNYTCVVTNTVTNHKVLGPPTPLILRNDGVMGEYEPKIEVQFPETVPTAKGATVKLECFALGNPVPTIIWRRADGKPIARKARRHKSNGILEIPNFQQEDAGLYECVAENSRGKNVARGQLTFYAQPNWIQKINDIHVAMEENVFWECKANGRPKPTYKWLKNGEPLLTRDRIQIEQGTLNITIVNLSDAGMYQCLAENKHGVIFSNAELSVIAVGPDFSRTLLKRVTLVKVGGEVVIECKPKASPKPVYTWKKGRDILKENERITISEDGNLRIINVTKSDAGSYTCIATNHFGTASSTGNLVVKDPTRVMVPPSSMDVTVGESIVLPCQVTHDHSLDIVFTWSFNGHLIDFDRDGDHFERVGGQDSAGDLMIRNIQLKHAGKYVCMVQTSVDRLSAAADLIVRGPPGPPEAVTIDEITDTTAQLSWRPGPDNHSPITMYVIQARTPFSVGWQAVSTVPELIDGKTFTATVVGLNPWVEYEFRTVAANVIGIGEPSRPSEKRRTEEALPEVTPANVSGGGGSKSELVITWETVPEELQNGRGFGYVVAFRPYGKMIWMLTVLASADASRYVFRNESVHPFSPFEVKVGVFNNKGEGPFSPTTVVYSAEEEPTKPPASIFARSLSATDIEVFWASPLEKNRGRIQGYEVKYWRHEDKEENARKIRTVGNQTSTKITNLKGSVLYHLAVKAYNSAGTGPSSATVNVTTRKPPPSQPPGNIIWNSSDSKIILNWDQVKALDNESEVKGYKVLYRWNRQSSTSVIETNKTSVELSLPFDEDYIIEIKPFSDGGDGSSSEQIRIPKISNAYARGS
Procedure: SPR test was performed on the monoclonal antibody hAb-1 prepared in Example 2. More specifically, in order to bind anti-human IgG Fc (capture antibody) using amine coupling, CM5 chip was mounted, running buffer was allowed to flow, the chip was activated, and then capture antibody was attached thereto. […] to which capture antibody was not attached was deactivated using ethanolamine, and then regeneration was performed using 3M magnesium chloride to clear analytes except capture antibody. The hAb-1 prepared at a concentration of 0.05 μg/mL was allowed to flow for 30 seconds at a rate of 10 μL/min for binding. Thereafter, human CNTN4 (400 nM to 0.78 nM) prepared by sequential dilution as an antigen was allowed to flow at a rate of 30 μL/min for 3 minutes to be bound, and dissociation was performed for 5 minutes.
Then, in order to clear all analytes attached to the capture antibody, a regeneration solution (3M magnesium chloride) was allowed to flow at a rate of […] for 30 seconds, and regeneration was performed. For each concentration of antigen, binding of hAb-1, binding of antigen, dissociation, and regeneration were repeated in order.

mouse CNTN4-10×His = target: T3, mouse CNTN4-10×His (mouse, UniProt Q69Z26 19-1000); experiment: ELISA, plate coated with 20 nM antigen, HRP anti-human kappa detection
T3 sequence: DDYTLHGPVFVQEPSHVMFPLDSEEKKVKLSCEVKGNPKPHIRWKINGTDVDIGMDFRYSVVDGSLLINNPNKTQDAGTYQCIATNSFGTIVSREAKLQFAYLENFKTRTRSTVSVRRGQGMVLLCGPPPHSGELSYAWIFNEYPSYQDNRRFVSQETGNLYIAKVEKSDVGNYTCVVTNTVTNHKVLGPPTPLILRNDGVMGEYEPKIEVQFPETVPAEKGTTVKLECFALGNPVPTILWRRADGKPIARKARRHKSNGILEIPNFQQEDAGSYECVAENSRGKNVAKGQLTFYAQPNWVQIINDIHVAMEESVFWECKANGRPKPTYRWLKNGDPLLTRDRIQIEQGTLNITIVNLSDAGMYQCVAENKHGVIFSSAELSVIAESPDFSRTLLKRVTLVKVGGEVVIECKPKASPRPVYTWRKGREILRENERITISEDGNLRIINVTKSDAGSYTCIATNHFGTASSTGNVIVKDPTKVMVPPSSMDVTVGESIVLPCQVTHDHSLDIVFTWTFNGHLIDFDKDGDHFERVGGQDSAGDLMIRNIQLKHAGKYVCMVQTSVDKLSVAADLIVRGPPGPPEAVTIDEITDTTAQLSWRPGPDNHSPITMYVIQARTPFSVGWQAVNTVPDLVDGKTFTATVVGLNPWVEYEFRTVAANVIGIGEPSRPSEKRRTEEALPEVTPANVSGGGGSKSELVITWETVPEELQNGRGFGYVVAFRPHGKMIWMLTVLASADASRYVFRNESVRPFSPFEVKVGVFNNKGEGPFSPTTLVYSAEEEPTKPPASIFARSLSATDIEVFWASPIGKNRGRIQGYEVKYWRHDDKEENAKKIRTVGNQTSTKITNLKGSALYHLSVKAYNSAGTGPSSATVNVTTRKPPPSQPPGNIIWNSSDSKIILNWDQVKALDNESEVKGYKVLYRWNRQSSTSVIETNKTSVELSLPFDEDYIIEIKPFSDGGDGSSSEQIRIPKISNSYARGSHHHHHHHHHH
Procedure: (§2) ELISA test was performed on the monoclonal antibody hAb-1 prepared in Example 2. An ELISA plate was coated with 20 nM of antigens (human CNTN4-10×His or mouse CNTN4-10×His). For antibody binding, antibodies hAb-1 were serially diluted from a maximum of 1 μM to 0.0001 nM, thereby binding to the antigen. HRP conjugated anti-human kappa antibodies were used as a secondary antibody for antibody detection. Color was developed using ABTS, which is a color developing reagent, and the absorbance at 405 nm was measured.

human CNTN4-10×His [3] = target: T1, human CNTN4-10×His; experiment: as above
Procedure: as §2

human CNTN4-10×His [4] = target: T1, human CNTN4-10×His; experiment: ELISA on coated human CNTN4-10×His, competitor 500 nM CNTN4 receptor (APP) co-incubated
Procedure: as §1

EC50 (human CNTN4-10×His [1]): 0.17 nM | Kd [2]: 35.6 nM | EC50 (mouse CNTN4-10×His): 0.12 nM | EC50 (human CNTN4-10×His [3]): 0.17 nM | EC50 (human CNTN4-10×His [4]): 0.24 nM
B1: anti-CNTN4 IgG4-S228P monoclonal antibody hAb-1 (antibody, V domains shown)
VH: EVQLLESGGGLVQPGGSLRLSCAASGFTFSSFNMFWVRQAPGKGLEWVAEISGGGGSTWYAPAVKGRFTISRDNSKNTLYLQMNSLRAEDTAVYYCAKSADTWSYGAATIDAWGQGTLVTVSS
VL: ELTQDPAVSVALGQTVRITCSGSSGSYGWYQQKPGQAPVLVIYDNTNRPSGIPDRFSGSSSGNTASLTITGAQAEDEADYYCGGYDGSTDVFGGGTKLTVL

From US20240209081A1 (GENOME, published 2024)
